US20190389961A1 (INNATE PHARMA, published 2019)
Positions count from the first letter of the chain named. In names and notes the source's numbering stands.

What was measured:
[1] = target: T1, human CD39 mutant 19 (human, UniProt P49961 1-510); experiment: flow cytometry on Hek-293T cells expressing CD39 mutant 19 (panel M19); unstained (US) median 8,98; antibody concentration not shown
T1 construct: Expressed on Hek-293T cells; also called M19
T1 chain: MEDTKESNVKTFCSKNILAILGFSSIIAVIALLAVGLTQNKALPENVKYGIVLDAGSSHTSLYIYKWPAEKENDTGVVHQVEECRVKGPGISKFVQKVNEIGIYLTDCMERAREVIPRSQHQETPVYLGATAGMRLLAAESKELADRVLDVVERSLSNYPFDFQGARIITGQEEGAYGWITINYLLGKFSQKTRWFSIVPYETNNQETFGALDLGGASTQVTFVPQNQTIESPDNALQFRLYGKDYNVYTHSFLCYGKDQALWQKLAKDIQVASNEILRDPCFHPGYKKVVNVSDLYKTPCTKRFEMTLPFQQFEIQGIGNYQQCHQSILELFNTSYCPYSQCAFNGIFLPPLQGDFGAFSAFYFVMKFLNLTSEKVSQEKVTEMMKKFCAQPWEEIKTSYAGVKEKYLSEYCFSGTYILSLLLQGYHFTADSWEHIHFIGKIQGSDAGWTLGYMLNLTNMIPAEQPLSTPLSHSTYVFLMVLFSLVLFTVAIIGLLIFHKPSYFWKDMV
Protocol: Mutants were transfected in Hek-293T cells, as shown in the table 1, using numbering of SEQ ID NO: 1. […] Mutant 19 includes substitutions at residues R138, M139 and E142.
In order to define the epitopes of the further anti-CD39 antibodies of Example 5, they were tested for loss of binding to the panel of CD39 mutants as described in Example 1 and Table 1. Mutants were transfected in Hek-293T cells, as shown in the table 1, using numbering of SEQ ID NO: 1.Dose-ranges of test antibodies (10-2.5-0.625-0.1563-0.0391-0.0098-0.0024-0.0006 μg/ml) are tested on the 20 generated mutants by flow cytometry.

[2] = target: T2, human CD39 (vascular CD39, NTPDase1) expressed at the surface of cells (human, UniProt P49961 1-510); experiment: cell-based or functional assay
T2 sequence: T1 chain with A138R, A139M, K142E

[3] = target: T3, soluble recombinant human CD39-M2 extracellular domain protein (human, UniProt P49961 38-478, limits assumed); experiment: cell-based or functional assay
T3 sequence: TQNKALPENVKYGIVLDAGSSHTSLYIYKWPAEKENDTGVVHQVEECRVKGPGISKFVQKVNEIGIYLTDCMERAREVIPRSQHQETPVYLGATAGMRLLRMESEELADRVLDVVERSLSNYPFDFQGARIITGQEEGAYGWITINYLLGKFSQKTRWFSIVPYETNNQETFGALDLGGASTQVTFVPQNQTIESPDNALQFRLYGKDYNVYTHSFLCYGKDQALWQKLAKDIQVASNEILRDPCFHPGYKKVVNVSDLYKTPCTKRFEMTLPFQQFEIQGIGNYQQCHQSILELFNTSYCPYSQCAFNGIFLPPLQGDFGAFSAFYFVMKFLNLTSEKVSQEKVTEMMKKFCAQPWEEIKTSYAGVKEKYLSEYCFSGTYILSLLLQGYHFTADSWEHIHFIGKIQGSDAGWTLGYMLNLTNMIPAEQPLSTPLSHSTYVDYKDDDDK

[4] = target: T2, human CD39 (vascular CD39, NTPDase1) …; experiment: flow cytometry on Ramos lymphoma cells, second set of experiments
Protocol: (§1) Cells were incubated with various concentration of unlabeled anti-CD39 antibody from 30 μg/ml to 5×10-⁴ μg/ml, for 30 minutes at 4° C. After washes, cells were incubated with Goat anti-mouse H+L labeled secondary antibody for 30 min at 4° C.

[5] = target: T2, human CD39 (vascular CD39, NTPDase1) …; experiment: flow cytometry on Ramos lymphoma cells, first set of experiments
Protocol: as §1

[6] = target: T4, recombinant human CD39-L4 (NTPDase5, ENTPD5) (human, UniProt O75356 25-428); experiment: ELISA on plate-coated recombinant huCD39 L4; the single curve has no legend on the sheet, I-394 by the legend paragraph 70
T4 construct: Genbank NP_001240 (precursor) is printed
T4 sequence: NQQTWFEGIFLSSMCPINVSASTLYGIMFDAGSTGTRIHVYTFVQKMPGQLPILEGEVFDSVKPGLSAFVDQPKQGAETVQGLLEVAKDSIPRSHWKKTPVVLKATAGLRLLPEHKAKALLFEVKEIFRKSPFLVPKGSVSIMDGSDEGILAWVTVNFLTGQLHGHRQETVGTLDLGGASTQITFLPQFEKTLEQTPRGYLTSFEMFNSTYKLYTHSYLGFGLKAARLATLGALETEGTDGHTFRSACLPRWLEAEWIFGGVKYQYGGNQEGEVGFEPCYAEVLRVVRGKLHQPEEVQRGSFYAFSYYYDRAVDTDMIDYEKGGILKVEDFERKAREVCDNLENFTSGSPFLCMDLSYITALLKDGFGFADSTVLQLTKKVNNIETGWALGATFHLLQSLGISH
Protocol: Wells were washed in TBS Tween 20, and further saturated 2H at RT in TBS Blocking buffer. Dose range concentration of primary antibody was incubated in TBS blocking buffer for 2 h at RT. Wells were washed in TBS Tween 20. […] Optical density was measured on Enspire™ at OD=450.

B1: antibody I-394 (antibody, V domains shown)
VH: EVQLQQSGPELVKPGASVKMSCKASGYTFTDYNMHWVKQSHGRTLEWIGYIVPLNGGSTFNQKFKGRATLTVNTSSRTAYMELRSLTSEDSAAYYCARGGTRFAYWGQGTLVTVSA
VL: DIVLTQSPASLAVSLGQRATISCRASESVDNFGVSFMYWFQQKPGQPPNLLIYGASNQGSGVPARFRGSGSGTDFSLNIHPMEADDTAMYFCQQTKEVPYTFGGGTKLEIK
notes: Mouse variable regions; Produced in CHO with human IgG1 constant domains carrying L234A/L235E/G237A/A330S/P331S (Kabat EU numbering) and a human Ck constant domain
B1 was tested, and the “Median : Comp-Alexa Fluor 647-A” value [1] was 24.4, the “IC50, inhibition of ATPase activity of CD39 on Ramos cells (Cell Titer Glo)” value [2] was 0.05 µg/mL and the “IC50, inhibition of ATPase activity of soluble CD39 protein (Cell Titer Glo)” value [3] was 0.003 µg/mL. For the same binder, the EC50 [4] was 0.19 µg/mL, the EC50 [5] was 0.16 µg/mL and the binding result [6] was “no binding (tested: about 50 µg/ml)”.
